Consider four molecules from patent publication US20210009975A1 (UNIVERSITY OF GEORGIA RESEARCH FOUNDATION, published 2021).

Residue numbers refer to the chain shown, from its start. In names and notes the source's numbering stands.

Assay [1] has as its target 3'-sialyllactose-BSA (bovine).
The target in assay [2] is fetuin (UniProt P12763).
The target of assay [3] is 3'-sialyllactose-BSA (bovine). As to the kind of experiment: LAC, Sia-3S1 column, 50 µg loaded, 10 mM EPPS pH 7.5 with 110 mM NaCl.
Sequence of 3'-sialyllactose-BSA (bovine) (P02769 25-607 limits assumed): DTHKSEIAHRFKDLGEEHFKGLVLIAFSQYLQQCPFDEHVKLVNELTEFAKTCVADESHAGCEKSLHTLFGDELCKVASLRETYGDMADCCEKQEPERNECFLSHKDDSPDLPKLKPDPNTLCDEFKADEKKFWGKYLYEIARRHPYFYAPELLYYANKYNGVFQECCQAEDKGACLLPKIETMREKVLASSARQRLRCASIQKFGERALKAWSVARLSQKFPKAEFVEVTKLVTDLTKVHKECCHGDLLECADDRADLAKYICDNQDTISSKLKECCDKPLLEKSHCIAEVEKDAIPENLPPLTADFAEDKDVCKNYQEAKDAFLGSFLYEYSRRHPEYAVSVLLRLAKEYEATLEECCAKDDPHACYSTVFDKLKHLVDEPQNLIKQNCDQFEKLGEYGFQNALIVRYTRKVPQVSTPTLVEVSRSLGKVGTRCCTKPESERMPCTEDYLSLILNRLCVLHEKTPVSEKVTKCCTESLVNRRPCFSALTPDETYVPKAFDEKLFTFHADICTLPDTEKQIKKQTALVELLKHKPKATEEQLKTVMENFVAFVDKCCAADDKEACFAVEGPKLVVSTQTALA
In assay [4] the target is fetuin (UniProt P12763). As to the kind of experiment: LAC, Sia-3S1 coupled to Sepharose column, 100 µg fetuin loaded.
The target in assay [5] is 3'-sialyllactose-BSA (bovine). As to the kind of experiment: LAC, Sia-3S1 column, 100 µg loaded.
Assay [6] addresses proteins of MCF7 cell-free extract. As to the kind of experiment: LAC, Sia-PS1 column, elution with 3′SL and 6′SL.
For assay [7] the target is unchanged. As to the kind of experiment: LAC, Sia-PS1 column, about 1.5 mg MCF7 proteins circulated at 4 °C overnight.
For assay [8] the target is unchanged. As to the kind of experiment: LAC, Sia-PS1 column, approximately 500 µg CFE loaded.
The next assay has as its target T1, asialofetuin (UniProt P12763 19-359, de-sialylated glycans).
T1 construct: also called de-sialylated fetuin
T1 sequence: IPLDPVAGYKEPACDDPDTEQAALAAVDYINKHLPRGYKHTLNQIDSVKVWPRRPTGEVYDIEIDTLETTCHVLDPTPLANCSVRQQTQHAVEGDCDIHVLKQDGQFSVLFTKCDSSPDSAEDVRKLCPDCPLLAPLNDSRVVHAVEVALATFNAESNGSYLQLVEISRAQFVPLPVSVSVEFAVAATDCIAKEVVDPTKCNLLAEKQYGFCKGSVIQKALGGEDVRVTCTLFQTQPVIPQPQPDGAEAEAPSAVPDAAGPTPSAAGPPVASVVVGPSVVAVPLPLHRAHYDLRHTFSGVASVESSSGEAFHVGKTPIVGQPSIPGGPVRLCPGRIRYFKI
Kind of assay: Western blot, Sia-3S1 as probe, anti-poly-His-HRP detection. (Immunoblotting shows a protein as a band on a membrane.)

The target in the next assay is T2, horseradish peroxidase (horseradish, UniProt P00433 31-338).
T2 construct: also called HRP
T2 sequence: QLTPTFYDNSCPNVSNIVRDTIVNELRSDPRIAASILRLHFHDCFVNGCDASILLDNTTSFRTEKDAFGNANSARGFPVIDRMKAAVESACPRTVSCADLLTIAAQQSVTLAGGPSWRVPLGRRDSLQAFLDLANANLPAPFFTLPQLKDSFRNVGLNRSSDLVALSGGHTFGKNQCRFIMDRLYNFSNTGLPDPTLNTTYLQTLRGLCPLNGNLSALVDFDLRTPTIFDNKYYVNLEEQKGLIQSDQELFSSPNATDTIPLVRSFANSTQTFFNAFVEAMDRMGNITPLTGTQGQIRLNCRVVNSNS
Kind of assay: Lectenz affinity chromatography (LAC), Sia-PS1 coupled to Sepharose column.

In [1], “Sia-3S1 Lectenz (NanB residues 30-697 with R193A, D270Q, A538V, E541D) (designed binder)” displayed a 3'SL-BSA Elution (amount of bound 3'SL-BSA eluted from the column) of 45 µg. Further, in the assay with fetuin [2], the percent of bound fetuin competitively eluted by 3′SL turned out to be 100% and the percent of bound fetuin competitively eluted by 6′SL was determined as 50%. In addition, in [3], the amount that did not bind to the column was determined as 5 µg. Also, in the assay with fetuin [4], the amount bound to the column came to 85 µg. The amount in flow through in assay [5] stood at 5 µg.
On to “Sia-PS1 Lectenz (NanB residues 30-697 with Y653F) (designed binder)”, for which the percent of total proteins bound to the column in assay [6] turned out to be 10%. Besides, in assay [7], the amount of protein in eluted peak amounted to 207 µg and the percent of loaded proteins in eluted peak stood at 13.8%. For the same molecule, in [8], the amount of bound proteins (elution peak) worked out at 30 µg and the amount of unbound proteins (flow-through peak) was found to be 319 µg.

B1: Sia-3S1 Lectenz (NanB residues 30-697 with R193A, D270Q, A538V, E541D) (designed binder)
chain: NELNYGQLSISPIFQGGSYQLNNKSIDISSLLLDKLSGESQTVVMKFKADKPNSLQALFGLSNSKAGFKNNYFSIFMRDSGEIGVEIRDAQKGINYLFSRPASLWGKHKGQAVENTLVFVSDSKDKTYTMYVNGIEVFSETVDTFLPISNINGIDKATLGAVNAEGKEHYLAKGSIDEISLFNKAISDQEVSTIPLSNPFQLIFQSGDSTQANYFRIPTLYTLSSGRVLSSIDARYGGTHQSKSKINIATSYSDDNGKTWSEPIFAMKFNDYEEQLVYWPRDNKLKNSQISGSASFIDSSIVEDKKSGKTILLADVMPAGIGNNNANKADSGFKEINGHYYLKLKKNGDNDFRYTVRENGVVYNETTNKPTNYTINDKYEVLEGGKSLTVEQYSVDFDSGSLRERHNGKQVPMNVFYKDSLFKVTPTNYIAMTTSQNRGESWEQFKLLPPFLGEKHNGTYLCPGQGLALKSSNRLIFATYTSGELTYLISDDSGQTWKKSSASIPFKNVTADAQMVELRDGVIRTFFRTTTGKIAYMTSRDSGETWSKVSYIDGIQQTSYGTQVSAIKYSQLIDGKEAVILSTPNSRSGRKGGQLVVGLVNKEDDSIDWKYHYDIDLPSYGYAYSAITELPNHHIGVLFEKYDSWSRNELHLSNVVQYIDLEINDLTK
notes: also called Sia-31 [sic]; not shown: N-terminal hexa-histidine tag
For B1, the binding result with asialofetuin is “no binding (tested: 1 µM)”.

B2: Sia-PS1 Lectenz (NanB residues 30-697 with Y653F) (designed binder)
chain: B1 chain with A164R, Q241D, V509A, D512E, Y624F
On to B2, for which, in the assay with horseradish peroxidase, the binding result is “no binding”.
